Results taken from PMC4743925, “Targeting an Essential GTPase Obg for the Development of Broad-Spectrum Antibiotics” (PLoS ONE, 2016).

Substrate: Nc1nc2c(ncn2[C@@H]2O[C@H](COP(=O)(O)OP(=O)(O)OP(=O)(O)O)[C@@H](O)[C@H]2O)c(=O)[nH]1
Test: BIOMOL Green (malachite green) phosphate release
Assay type: biochemical, Neisseria gonorrhoeae
Settings: 5 μM protein, 10-1000 μM GTP, 6 h, 37 °C, pH 8.0, 10 mM MgCl2, 50 mM KCl

B1: ObgGC (Neisseria gonorrhoeae FA 1090) (protein)
chain: MKFIDEAKIEVAAGKGGNGATSFRREKFVPRGGPDGGDGGKGGSVWAEADENTNTLVEYRFVKRYQAKNGEKGHGSDRYGAGADDIVLKMPVGTLIRDLDTDEIVADLTYHGQRVCLAKGGKGGLGNIHFKSSVNRAPKQSTPGEEGETRSLQLELKVLADVGLLGMPNAGKSTLITAVSAARPKIANYPFTTLHPNLGVVRIDENHSFVMADIPGLIEGAAEGAGLGHRFLKHLSRTGLLLHVVDLAPFDETVNPAEEALAIINELRKYDEELYGKPRWLVLNKLDMLDEEEARARTAAFLEAVGWDYPEPDDRFQFDMETPRLFQISALTHQGTQELVHQINQYLAEKKRIEAEKAEAEKAAANVEIIEQQPKTDTGVFKPE
notes: full-length with C-terminal 6xHis tag, expressed in E. coli BL21(DE3), IMAC and size exclusion; tag not reported cut
Km: 78.76 µM
